From publication PMC5341950, “Antitumor activity of a novel anti-vascular endothelial growth factor receptor-1 monoclonal antibody that does not interfere with ligand binding” (Oncotarget, 2016) come the findings set out here.

For experiment [1], the target named is T1, recombinant VEGFR-1/Fc chimera (UniProt P17948 27-758).
T1 construct: Vascular endothelial growth factor receptor-1 (VEGFR-1), extracellular region, fused with the Fc region of human immunoglobulins; Bought chimera; source: bought: R&D Systems
Put plainly: ELISA; 96-well Maxisorp plates coated with 10 ug/ml sVEGFR-1; binding buffer PBS with 3% BSA, 1 mM CaCl2, 0.5 mM MgCl2; 2 ug/ml VEGFR-1/Fc, 4 ug/ml VEGFR-2/Fc or 1 ug/ml NRP-1/Fc added; detection with alkaline phosphatase-conjugated anti-human Fc antibody, absorbance at 405 nm; selected wells pre-incubated with 5 ug/ml D16F7 mAb for 30 min at room temperature. The settings on record: both partners purified. For orientation: In an ELISA, binding on a coated surface is turned into a signal by an enzyme label.

For experiment [2], the target named is T2, recombinant VEGFR-2/Fc chimera (UniProt P35968 20-764).
T2 construct: Vascular endothelial growth factor receptor-2 (VEGFR-2), extracellular region, fused with the Fc region of human immunoglobulins; Bought chimera; source: bought: R&D Systems
Described as above. Conditions: both partners purified.

T2 sequence (P35968 20-764, stated change not applied): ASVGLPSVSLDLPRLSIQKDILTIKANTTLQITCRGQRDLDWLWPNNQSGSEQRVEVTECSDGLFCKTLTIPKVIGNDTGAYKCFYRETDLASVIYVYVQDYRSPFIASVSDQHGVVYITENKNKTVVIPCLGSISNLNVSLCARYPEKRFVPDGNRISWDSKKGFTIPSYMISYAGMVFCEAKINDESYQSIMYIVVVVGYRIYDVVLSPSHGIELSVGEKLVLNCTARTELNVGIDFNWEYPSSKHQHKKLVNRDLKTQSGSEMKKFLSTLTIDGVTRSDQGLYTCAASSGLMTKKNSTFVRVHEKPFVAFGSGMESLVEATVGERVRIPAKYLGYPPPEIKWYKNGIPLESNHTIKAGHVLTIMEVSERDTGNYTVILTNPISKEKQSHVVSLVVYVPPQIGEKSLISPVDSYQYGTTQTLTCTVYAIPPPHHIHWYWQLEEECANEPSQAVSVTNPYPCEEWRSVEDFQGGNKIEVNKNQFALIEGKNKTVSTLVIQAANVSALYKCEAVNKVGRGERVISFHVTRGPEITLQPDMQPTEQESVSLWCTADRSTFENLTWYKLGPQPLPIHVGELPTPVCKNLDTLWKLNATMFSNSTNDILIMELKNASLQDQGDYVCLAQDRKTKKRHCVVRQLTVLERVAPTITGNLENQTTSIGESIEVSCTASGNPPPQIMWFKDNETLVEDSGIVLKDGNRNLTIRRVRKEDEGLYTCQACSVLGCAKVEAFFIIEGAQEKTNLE

B1: native human soluble VEGFR-1 (sVEGFR-1) (receptor, UniProt P17948-2 27-687, looked up)
chain: SKLKDPELSLKGTQHIMQAGQTLHLQCRGEAAHKWSLPEMVSKESERLSITKSACGRNGKQFCSTLTLNTAQANHTGFYSCKYLAVPTSKKKETESAIYIFISDTGRPFVEMYSEIPEIIHMTEGRELVIPCRVTSPNITVTLKKFPLDTLIPDGKRIIWDSRKGFIISNATYKEIGLLTCEATVNGHLYKTNYLTHRQTNTIIDVQISTPRPVKLLRGHTLVLNCTATTPLNTRVQMTWSYPDEKNKRASVRRRIDQSNSHANIFYSVLTIDKMQNKDKGLYTCRVRSGPSFKSVNTSVHIYDKAFITVKHRKQQVLETVAGKRSYRLSMKVKAFPSPEVVWLKDGLPATEKSARYLTRGYSLIIKDVTEEDAGNYTILLSIKQSNVFKNLTATLIVNVKPQIYEKAVSSFPDPALYPLGSRQILTCTAYGIPQPTIKWFWHPCNHNHSEARCDFCSNNEESFILDADSNMGNRIESITQRMAIIEGKNKMASTLVVADSRISGIYICIASNKVGTVGRNISFYITDVPNGFHVNLEKMPTEGEDLKLSCTVNKFLYRDVTWILLRTVNNRTMHYSISKQKMAITKEHSITLNLTIMNVSLQDSGTYACRARNVYTGEEILQKKEITIRGEHCNKKAVFSRISKFKSTRNDCTTQSNVKH
notes: The methods call it 'Native human sVEGFR-1'; also called recombinant sVEGFR-1; source: bought: ReliaTech
For B1, the binding result in experiment [1] and in experiment [2] was “binds” throughout.
